Two molecules from patent US7531643 can be followed below.

The target in assay [1] is human Integrin Associated Protein (IAP) (human) (UniProt Q08722). The assay can be described thus: cell ELISA on PLP-fixed CF-1 cells expressing human IAP, antibody at 3 µg/ml. (In an ELISA, binding on a coated surface is turned into a signal by an enzyme label.)
Assay [2] shares this target. The assay can be described thus: cell ELISA, CF1-hIAP-55-8 minus CF1-pCOS1, antibody at 3 µg/ml.
For assay [3] the target is unchanged. The assay can be described thus: cell-based or functional assay.
Assay [4] shares this target. The assay can be described thus: cell ELISA on PLP-fixed CF-1 cells expressing human IAP, hybridoma culture supernatant.
The target is the same in assay [5]. The assay can be described thus: cell ELISA, CF1-hIAP-55-8 minus CF1-pCOS1, hybridoma culture supernatant.

UniProt Q08722, sequence (Q08722 19-323): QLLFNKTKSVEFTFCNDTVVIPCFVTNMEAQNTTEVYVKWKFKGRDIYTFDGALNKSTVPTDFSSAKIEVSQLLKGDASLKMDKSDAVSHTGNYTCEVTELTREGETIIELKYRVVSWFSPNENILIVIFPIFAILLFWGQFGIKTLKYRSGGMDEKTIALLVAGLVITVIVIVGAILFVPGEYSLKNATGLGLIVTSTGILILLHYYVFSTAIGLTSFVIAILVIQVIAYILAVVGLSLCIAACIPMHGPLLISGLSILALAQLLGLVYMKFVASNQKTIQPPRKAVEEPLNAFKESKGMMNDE

In turn, “human IAP-recognizing anti-CD47 antibody (PharMingen)” displayed an absorbance in ELISA (raw data, CF1-hIAP-55-8) in assay [1] of 0.456 absorbance. This molecule also showed a Specific binding (absorbance, CF1-pCOS1 subtracted) in assay [2] of 0.296 absorbance.

B1: monoclonal antibody of hybridoma 7D2-E3 (antibody, from another filing, IgG2a)
scFv: QVQLQQSGPELVKPGASVKMSCKASGYTFANHVIHWVKQKPGQGLEWIGYIYPYNDGTKYNEKFKDKATLTSDKSSTTAYMDLSSLASEDSAVYYCARGGYYTYDDWGQGTTLTVSSGGGGSGGGGSGGGGSDVVMTQSPLSLPVSLGDQASISCRSSQSLVHSNGKTYLHWYLQKPGQSPKLLIYKVSNRFSGVPDRFSGSGSVTDFTLMISRVEAEDLGVYFCSQSTHVPYTFGGGTKLEIKDYKDDDDK
Turning to B1, the percentage (%) of apoptosis of Jurkat cells, PI staining, flow cytometry (8G2 control supernatant 7.43%) in assay [3] is 9.84%. Moreover, the absorbance in ELISA (raw data, CF1-hIAP-55-8) in assay [4] was determined as 0.568 absorbance. Moreover, the Specific binding (absorbance, CF1-pCOS1 subtracted) in assay [5] is 0.379 absorbance.
